In this experiment the target is T1, 6His-GST-URT1 (Arabidopsis thaliana, UniProt O64642 1-764).
T1 construct: URT1, Arabidopsis thaliana, AT2G45620, 764 amino acids; amplified from cDNA; Plasmids in Supplementary Data 7; expression and purification in Supplementary Methods; source: E. coli BL21 DE3, purified; not shown: 6His, N-terminal, kept; GST, N-terminal, kept
T1 sequence (looked up): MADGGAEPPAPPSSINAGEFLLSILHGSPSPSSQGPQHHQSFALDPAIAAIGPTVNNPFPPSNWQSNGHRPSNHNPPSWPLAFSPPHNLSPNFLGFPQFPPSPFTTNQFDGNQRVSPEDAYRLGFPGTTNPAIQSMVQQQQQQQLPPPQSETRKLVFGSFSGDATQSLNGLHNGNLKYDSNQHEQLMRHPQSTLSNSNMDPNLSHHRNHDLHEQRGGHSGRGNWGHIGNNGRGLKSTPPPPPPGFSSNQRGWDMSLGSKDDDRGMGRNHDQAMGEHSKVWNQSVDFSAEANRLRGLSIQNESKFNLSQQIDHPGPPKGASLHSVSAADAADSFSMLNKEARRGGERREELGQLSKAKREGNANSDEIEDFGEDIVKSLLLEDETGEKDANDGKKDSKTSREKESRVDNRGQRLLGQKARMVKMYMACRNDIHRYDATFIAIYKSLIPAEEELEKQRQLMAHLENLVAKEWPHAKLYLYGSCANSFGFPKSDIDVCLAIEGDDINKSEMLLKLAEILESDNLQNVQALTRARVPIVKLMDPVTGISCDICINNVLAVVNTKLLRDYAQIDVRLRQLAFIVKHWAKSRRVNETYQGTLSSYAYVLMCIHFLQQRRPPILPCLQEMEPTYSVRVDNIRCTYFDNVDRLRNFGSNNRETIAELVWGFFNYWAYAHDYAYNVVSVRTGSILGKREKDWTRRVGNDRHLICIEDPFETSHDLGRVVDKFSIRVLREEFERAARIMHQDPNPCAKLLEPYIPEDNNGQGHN
In words: pull-down; GST pull-down on glutathione sepharose; 10 pmol of each purified protein in 500 µl of 20 mM MOPS pH 7.2, 100 mM KCl, 15% glycerol, 0.1% Tween 20 with 100 ng/µl RNase A, 4 °C; SDS-PAGE, SYPRO Ruby. Particulars: both partners purified.

B1: 6His-MBP-DCP5 (natural protein, Arabidopsis thaliana, UniProt Q9C658 1-611, looked up)
chain: MAADNTGSKSSSAADSYVGSLISLTSKSEIRYEGILYNINTDESSIGLQNVRSFGTEGRKKDGPQVPPSDKVYEYILFRGTDIKDLQVKASPPVQPPASTINNDPAIIQSHYPSPMPTSGSLPSTASGSLPDISSHNGQPGQHGMGFQNAMPLYQPGGNLGSWGASPQPPMYWQGFYTPPPNGLPQLHQQSLIRPPHGLPMPNSLQQPLQYPNFNTPPPPTGSSSLQGSSLPEAPSSLFPFSTSSQMLAPSSLPFPGLPPVTLSSSLQSTLQSAPSPSLASEMAPPLLSNKAPITAPPTLPQDTNLLSFSLSTTRATEASTGLPLSNKPSVVTGPISPPQTTPLTSAPVAGVSSSISQDKPKPLLVTPGQLLQSGSSAVSLSPPSTNADKDVEVVQVSSSAGLEQSVPVTSEAQPPILPLPSSARPTQKPNGHSFPNHNGYRGRGRGRGRGAGRSHQVMKFTEDFDFTAMNEKFNKDEVWGHLGKSTTLDGDEDDDSPTVDEAELPKIEAKPVYNKDDFFDSLSSNTIDRESQNSRPRFSEQRKLDTETFGEFSRFRGGRGGRGGYGRNNGYSRGGYGGRGYGGYGGRGGGGGGYGYGGRGQGRGVSNRTT
notes: DECAPPING 5 (DCP5), Arabidopsis thaliana, AT1G26110; amplified from cDNA; source: E. coli BL21 DE3, purified; not shown: 6His, N-terminal, kept; MBP, N-terminal, kept
In the case of B1, the binding result is “binds”.

For the origin of these results see paper PMC7910438, “The TUTase URT1 connects decapping activators and prevents the accumulation of excessively deadenylated mRNAs to avoid siRNA biogenesis” (Nature Communications, 2021).
